{
  "source": "paper PMC11507941",
  "about": "(bioRxiv, 2024)",
  "binders": {"B1": {"name": "BODIPY-FL labeled C51A/E107C SufE (natural protein, E. coli, UniProt P76194 1-138, looked up)", "chain": "MALLPDKEKLLRNFLRCANWEEKYLYIIELGQRLPELRDEDRSPQNSIQGAQSQVWIVMRQNAQGIIELQGDSDAAIVKGLIAVVFILYDQMTPQDIVNFDVRPWFCKMALTQHLTPSRSQGLEAMIRAIRAKAAALS", "modifications": "BODIPY FL maleimide label (labelling efficiency 60-80%)"}},
  "experiment_in_all_cases": "fluorescence polarisation",
  "key": {"R359K SufS [1]": {"biological_target": "T1, R359K SufS (E. coli, UniProt P77444 1-406, R359K, PLP cofactor (occupancy greater than 90%))", "T1 sequence": "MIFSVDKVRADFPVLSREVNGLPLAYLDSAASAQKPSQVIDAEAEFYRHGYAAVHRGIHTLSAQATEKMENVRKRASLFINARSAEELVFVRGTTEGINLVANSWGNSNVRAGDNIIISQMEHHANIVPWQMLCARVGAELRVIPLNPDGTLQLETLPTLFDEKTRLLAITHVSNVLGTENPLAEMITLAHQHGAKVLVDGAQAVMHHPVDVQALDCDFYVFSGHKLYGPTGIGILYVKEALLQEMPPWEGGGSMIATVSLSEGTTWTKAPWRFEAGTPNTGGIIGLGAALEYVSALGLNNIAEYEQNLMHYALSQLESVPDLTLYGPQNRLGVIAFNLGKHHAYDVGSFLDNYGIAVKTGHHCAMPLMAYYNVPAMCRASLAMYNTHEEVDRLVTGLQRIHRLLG"}, "R56K SufS [2]": {"biological_target": "T2, R56K SufS (E. coli, UniProt P77444 1-406, R56K, PLP cofactor (occupancy greater than 90%))", "T2 sequence": "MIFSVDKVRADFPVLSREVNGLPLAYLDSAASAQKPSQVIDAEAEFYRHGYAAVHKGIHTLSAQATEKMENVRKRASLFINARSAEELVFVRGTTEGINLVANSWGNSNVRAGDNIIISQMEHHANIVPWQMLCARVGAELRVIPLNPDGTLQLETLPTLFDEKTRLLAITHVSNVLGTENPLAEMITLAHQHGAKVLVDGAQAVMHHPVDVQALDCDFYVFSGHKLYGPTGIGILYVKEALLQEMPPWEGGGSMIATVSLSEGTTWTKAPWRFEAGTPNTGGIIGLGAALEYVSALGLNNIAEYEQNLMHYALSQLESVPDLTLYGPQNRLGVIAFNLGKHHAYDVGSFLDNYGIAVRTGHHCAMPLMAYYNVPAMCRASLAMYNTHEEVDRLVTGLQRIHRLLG"}, "WT SufS [3]": {"biological_target": "T3, WT SufS (E. coli, UniProt P77444 1-406, PLP cofactor attached to K226 as an internal aldimine)", "T3 sequence": "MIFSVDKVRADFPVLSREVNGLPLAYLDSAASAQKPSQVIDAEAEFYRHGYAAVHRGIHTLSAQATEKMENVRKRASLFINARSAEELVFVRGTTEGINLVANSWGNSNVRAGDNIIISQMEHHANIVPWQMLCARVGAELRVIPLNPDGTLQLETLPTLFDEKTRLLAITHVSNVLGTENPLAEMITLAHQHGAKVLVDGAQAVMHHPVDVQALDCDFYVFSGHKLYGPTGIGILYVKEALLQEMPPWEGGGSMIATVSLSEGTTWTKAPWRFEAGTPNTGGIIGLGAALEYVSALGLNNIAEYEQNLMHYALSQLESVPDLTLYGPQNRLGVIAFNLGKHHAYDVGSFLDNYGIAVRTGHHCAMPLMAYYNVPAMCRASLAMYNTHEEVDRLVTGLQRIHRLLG"}, "R359A SufS [4]": {"biological_target": "T4, R359A SufS (E. coli, UniProt P77444 1-406, R359A, PLP cofactor (occupancy greater than 90%))", "T4 sequence": "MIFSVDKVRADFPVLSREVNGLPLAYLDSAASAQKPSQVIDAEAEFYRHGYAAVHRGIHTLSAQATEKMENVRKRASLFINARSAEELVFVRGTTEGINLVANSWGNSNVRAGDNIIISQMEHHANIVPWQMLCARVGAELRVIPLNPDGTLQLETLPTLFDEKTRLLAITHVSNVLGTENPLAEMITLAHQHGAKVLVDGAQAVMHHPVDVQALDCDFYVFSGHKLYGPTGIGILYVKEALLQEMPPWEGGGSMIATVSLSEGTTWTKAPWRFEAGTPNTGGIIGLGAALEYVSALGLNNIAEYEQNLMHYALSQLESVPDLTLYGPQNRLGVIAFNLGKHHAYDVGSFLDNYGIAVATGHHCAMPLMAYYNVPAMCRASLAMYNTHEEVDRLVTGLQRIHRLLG"}, "R56A SufS [5]": {"biological_target": "T5, R56A SufS (E. coli, UniProt P77444 1-406, R56A, PLP cofactor (occupancy greater than 90%))", "T5 sequence": "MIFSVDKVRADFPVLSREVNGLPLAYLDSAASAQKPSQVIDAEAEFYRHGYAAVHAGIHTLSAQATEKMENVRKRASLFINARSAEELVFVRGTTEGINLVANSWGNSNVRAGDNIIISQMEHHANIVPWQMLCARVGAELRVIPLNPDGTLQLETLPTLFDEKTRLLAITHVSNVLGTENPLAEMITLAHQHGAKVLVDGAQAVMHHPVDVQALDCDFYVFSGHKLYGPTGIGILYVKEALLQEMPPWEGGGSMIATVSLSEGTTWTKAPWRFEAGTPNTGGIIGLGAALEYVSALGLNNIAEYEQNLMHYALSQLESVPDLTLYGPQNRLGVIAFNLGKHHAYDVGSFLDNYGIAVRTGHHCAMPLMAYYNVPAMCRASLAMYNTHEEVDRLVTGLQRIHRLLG"}, "R359K SufS [6]": {"biological_target": "T1, R359K SufS", "remark": "listed apart in the source"}, "R56K SufS [7]": {"biological_target": "T2, R56K SufS", "remark": "listed apart in the source"}, "WT SufS [8]": {"biological_target": "T3, WT SufS", "remark": "listed apart in the source"}, "R359A SufS [9]": {"biological_target": "T4, R359A SufS", "remark": "listed apart in the source"}, "R56A SufS [10]": {"biological_target": "T5, R56A SufS", "remark": "listed apart in the source"}},
  "note": "Where two headings read alike, the source gives them in different places.",
  "data": [
    {"binder": "B1", "values": [
      {"measurement": "Kd", "setting": "R359K SufS [1]", "value": "4.6 ± 0.5", "unit": "µM"},
      {"measurement": "Kd", "setting": "R56K SufS [2]", "value": "8.5 ± 1.1", "unit": "µM"},
      {"measurement": "Kd", "setting": "WT SufS [3]", "value": "2500 ± 300", "unit": "nM"},
      {"measurement": "Kd", "setting": "R359A SufS [4]", "value": "900 ± 200", "unit": "nM"},
      {"measurement": "Kd", "setting": "R56A SufS [5]", "value": "5.8 ± 0.9", "unit": "µM"},
      {"measurement": "Kd", "setting": "R359K SufS [6]", "value": "2800 ± 300", "unit": "nM"},
      {"measurement": "Kd", "setting": "R56K SufS [7]", "value": "2800 ± 300", "unit": "nM"},
      {"measurement": "Kd", "setting": "WT SufS [8]", "value": "200 ± 100", "unit": "nM"},
      {"measurement": "Kd", "setting": "R359A SufS [9]", "value": "300 ± 100", "unit": "nM"},
      {"measurement": "Kd", "setting": "R56A SufS [10]", "value": "4 ± 0.4", "unit": "µM"}
    ]}
  ]
}
